This note sets out measurements from patent US20240158494A1 (Biogen, published 2024).

Where two headings read alike, the source gives them in different places.

The target in assay [1] is T1, cynomolgus monkey transferrin receptor 1 (TfR1), full length, expressed on cells (cynomolgus monkey, UniProt Q5RDH6 1-760 (Pongo abelii entry)).
T1 construct: also called cyno TfR1; cyTfR
As to the kind of experiment: FACS on Ba/F3 cells, Fab supernatant.

For assay [2], the target named is T2, human transferrin receptor 1 (TfR1), full length, expressed on cells (human, UniProt P02786 1-760).
T2 construct: also called human TfR1; huTfR
The experiment in a line: FACS on Ba/F3 cells, Fab supernatant.

The target in assay [3] is T3, recombinant cynomolgus monkey TfR1 extracellular domain, His-tagged (cynomolgus monkey, UniProt Q5RDH6 87-760 (Pongo abelii entry)).
T3 construct: also called Cyno TfR1 ECD; cyno TfR1 ECD-His
The experiment in a line: SPR, TfR1 ECD-His captured, Fab injected, 1:1 fit.

The target of assay [4] is T4, recombinant human TfR1 extracellular domain, His-tagged (human, UniProt P02786 89-760).
T4 construct: also called Human TfR1 ECD; human TfR1 ECD-His
As to the kind of experiment: SPR, TfR1 ECD-His captured, Fab injected, 1:1 fit. In general terms: In SPR one partner is held on a chip, and binding of the other changes the refractive index at the surface.

For assay [5], the target named is T1, cynomolgus monkey transferrin receptor …. As to the kind of experiment: FACS on Ba/F3 cells, Fab supernatant. This is another data set of the same source.
Assay [6] has as its target T2, human transferrin receptor 1 (TfR1), …. As to the kind of experiment: FACS on Ba/F3 cells, Fab supernatant. This is another data set of the same source.

For orientation: EC50 means the concentration needed to bring the measured effect to its halfway point. For orientation: Kd means the concentration at which binding is half-saturated. One may read the koff as the rate constant with which the complex falls apart. As a reminder, the kon is the rate constant with which the complex forms.

B1: TfR1 ANTIBODY-A HC-H2 hIgG1 Fab′(1C)/LC-L2 hKappa (Fab, V domains shown)
VH: QSLVESGGGLVQPGGSLRLSCAASGIDFSSSGYMAWVRQAPGKGLEWVGAIYTYSSNTYYAASVKGRFTISKTSSTTVYLQMNSLKTEDTAVYYCARGTYGYTGYTYTMGYFSLWGQGTLVTVSS
VL: ELDMTQSPSTLSASVGDRVTITCQASQNINSYLAWYQQKPGKAPKLLIYRASTLASGVPSRFSGSGSGTEFTLTISSLQPDDFATYYCQSYYYSGSSNYNAFGGGTKVEIKR
notes: heavy chain derived; also called ANTIBODY-A H2/L2
Regarding B1, the EC50 was > 52 nM in assay [1] and 6.5 nM in assay [2].

B2: TfR1 ANTIBODY-A HC-H1C hIgG1 Fab′(1C)/LC-L1 hKappa (Fab, V domains shown)
VH: QSLVESGGGLVQPGGSLRLSCAASGIDFSSSGYMCWVRQAPGKGLEWVGCIYTYSSNTYYAASVKGRFTISRDDSKNSLYLQMNSLKTEDTAVYYCARGTYGYTGYTYTMGYFSLWGQGTLVTVSS
VL: DIQMTQSPSTLSASVGDRVTITCQASQNINSYLAWYQQKPGKAPKLLIYRASTLASGVPSRFSGSGSGTEFTLTISSLQPDDFATYYCQSYYYSGSSNYNAFGGGTKVEIKR
notes: also called ANTIBODY-A H1C/L1
For the molecule B2, the EC50 was ~26 nM in assay [1] and 3.6 nM in assay [2].

B3: TfR1 ANTIBODY-A HC-H0 hIgG1 Fab′(1C)/LC-L1 hKappa (Fab, V domains shown)
VH: EVQLVESGGGLVQPGGSLRLSCAASGIDFSSSGYMAWVRQAPGKGLEWVGAIYTYSSNTYYAASVKGRFTISRDDSKNSLYLQMNSLKTEDTAVYYCARGTYGYTGYTYTMGYFSLWGQGTLVTVSS
VL: DIQMTQSPSTLSASVGDRVTITCQASQNINSYLAWYQQKPGKAPKLLIYRASTLASGVPSRFSGSGSGTEFTLTISSLQPDDFATYYCQSYYYSGSSNYNAFGGGTKVEIKR
notes: also called ANTIBODY-A H0/L1
Take B3: the 50% effective concentration (EC50) in assay [1] is > 107 nM; in assay [2], ~19 nM.

B4: TfR1 ANTIBODY-A HC-H2C hIgG1 Fab′(1C)/LC-L2 hKappa (Fab, V domains shown)
VH: QSLVESGGGLVQPGGSLRLSCAASGIDFSSSGYMCWVRQAPGKGLEWVGCIYTYSSNTYYAASVKGRFTISKTSSTTVYLQMNSLKTEDTAVYYCARGTYGYTGYTYTMGYFSLWGQGTLVTVSS
VL: ELDMTQSPSTLSASVGDRVTITCQASQNINSYLAWYQQKPGKAPKLLIYRASTLASGVPSRFSGSGSGTEFTLTISSLQPDDFATYYCQSYYYSGSSNYNAFGGGTKVEIKR
notes: also called ANTIBODY-A H2C/L2
Regarding B4, the EC50 in assay [1] was determined as 7.4 nM. The same molecule registered an EC50 in assay [2] of 2.8 nM. In assay [3], the equilibrium dissociation constant (Kd) is 7.8 nM, the koff worked out at 0.0137 s⁻¹ and the kon was 1.76e+06 M⁻¹ s⁻¹. Also, in assay [4], the dissociation constant Kd came to 2.2 nM, the off-rate (koff) turned out to be 0.00213 s⁻¹ and the kon amounted to 952000 M⁻¹ s⁻¹.

B5: TfR1 ANTIBODY-A HC-H4C hIgG1 Fab′(1C)/LC-L2 hKappa (Fab, V domains shown)
VH: QSLVESGGGLVQPGGSLRLSCKASGIDFSSSGYMCWVRQAPGKGLEWVGCIYTYSSNTYYASWAKGRFTISKTSSTTVYLQMNSLKTEDTAVYYCARGTYGYTGYTYTMGYFSLWGPGTLVTVSS
VL: ELDMTQSPSTLSASVGDRVTITCQASQNINSYLAWYQQKPGKAPKLLIYRASTLASGVPSRFSGSGSGTEFTLTISSLQPDDFATYYCQSYYYSGSSNYNAFGGGTKVEIKR
notes: also called ANTIBODY-A H4C/L2
On to B5, for which the 50% effective concentration (EC50) in assay [1] was 3.3 nM. Besides, a half-maximal effect in assay [2] (EC50) was put at 1.6 nM. In assay [3], the Kd came to 6.2 nM, the off-rate constant (koff) came to 0.0134 s⁻¹ and the association rate constant (kon) came out at 2.16e+06 M⁻¹ s⁻¹. Further, in assay [4], the Kd turned out to be 1.6 nM, the off-rate constant (koff) turned out to be 0.00148 s⁻¹ and the kon stood at 931000 M⁻¹ s⁻¹.

B6: TfR1 ANTIBODY-A HC-H1 hIgG1 Fab′(1C)/LC-L0 hKappa (Fab, V domains shown)
VH: QSLVESGGGLVQPGGSLRLSCAASGIDFSSSGYMAWVRQAPGKGLEWVGAIYTYSSNTYYAASVKGRFTISRDDSKNSLYLQMNSLKTEDTAVYYCARGTYGYTGYTYTMGYFSLWGQGTLVTVSS
VL: DIQMTQSPSTLSASVGDRVTITCQASQNINSYLAWYQQKPGKAPKLLIYRASSLESGVPSRFSGSGSGTEFTLTISSLQPDDFATYYCQSYYYSGSSNYNAFGGGTKVEIKR
notes: also called ANTIBODY-A H1/L0
As to B6, the values for the EC50 in assay [1] and in assay [2] were > 176 nM and 25 nM, respectively.

B7: TfR1 ANTIBODY-A HC-H3C hIgG1 Fab′(1C)/LC-L2 hKappa (Fab, V domains shown)
VH: QSLVESGGGLVQPGGSLRLSCKASGIDFSSSGYMCWVRQAPGKGLEWVGCIYTYSSNTYYASWAKGRFTISKDSKNSVYLQMNSLKTEDTAVYYCARGTYGYTGYTYTMGYFSLWGPGTLVTVSS
VL: ELDMTQSPSTLSASVGDRVTITCQASQNINSYLAWYQQKPGKAPKLLIYRASTLASGVPSRFSGSGSGTEFTLTISSLQPDDFATYYCQSYYYSGSSNYNAFGGGTKVEIKR
notes: also called ANTIBODY-A H3C/L2
On to B7, for which the concentration for a half-maximal effect (EC50) in assay [1] turned out to be 10.4 nM. The same molecule displayed an EC50 in assay [2] of 1.6 nM. Also, in assay [3], the dissociation constant (Kd) worked out at 8.3 nM, the dissociation rate constant (koff) was determined as 0.0178 s⁻¹ and the kon worked out at 2.16e+06 M⁻¹ s⁻¹. In assay [4], the Kd stood at 2.4 nM, the off-rate (koff) came to 0.00215 s⁻¹ and the on-rate (kon) came out at 886000 M⁻¹ s⁻¹.

B8: TfRANTIBODY-B HC-H4C/LC-L2 (C90V) hIgG1Fab′(1C) (Fab, V domains shown)
VH: QSLVESGGGVVQPGRSLRLSCKASGFSFSNSYWICWVRQAPGKGLEWVGCINTDADSTNYASWARGRFTISKTSSTTVYLQMNSLRAEDTAVYYCARQNNVFDPGYNLWGPGTLVTVSS
VL: ELVLTQSPSTLSASVGDRVTITCRASQNIGSNLAWYQQKPGKAPKLLIYDASKLESGVPSRFSGSGSGTEFTLTISSLQPDDFATYYCQVTVRGGAYGNAFGGGTKVEIKR
notes: also called ANTIBODY-B H4C/L2(C90V); H4C (C90V)/L2
On to B8, for which the figures for the EC50 in assay [5] and in assay [6] were 2.2 nM and 4.9 nM, respectively.

B9: TfRANTIBODY-B HC-H1C/LC-L2 (C90V) hIgG1Fab′(1C) (Fab, V domains shown)
VH: QSLVESGGGVVQPGRSLRLSCAASGFSFSNSYWICWVRQAPGKGLEWVGCINTDADSTNYADSVKGRFTISKDNSKNTVYLQMNSLRAEDTAVYYCARQNNVFDPGYNLWGQGTLVTVSS
VL: ELVLTQSPSTLSASVGDRVTITCRASQNIGSNLAWYQQKPGKAPKLLIYDASKLESGVPSRFSGSGSGTEFTLTISSLQPDDFATYYCQVTVRGGAYGNAFGGGTKVEIKR
notes: also called ANTIBODY-B H1C/L2(C90V)
On to B9, for which the half-maximal effective concentration (EC50) in assay [5] came to 2.9 nM; in assay [6] it was 10.7 nM.

B10: TfRANTIBODY-B HC-H3C/LC-L2 (C90S) hIgG1Fab′(1C) (Fab, V domains shown)
VH: QSLVESGGGVVQPGRSLRLSCAASGFSFSNSYWICWVRQAPGKGLEWVGCINTDADSTNYASWARGRFTISKDNSKNTLYLQMNSLRAEDTAVYYCARQNNVFDPGYNLWGQGTLVTVSS
VL: ELVLTQSPSTLSASVGDRVTITCRASQNIGSNLAWYQQKPGKAPKLLIYDASKLESGVPSRFSGSGSGTEFTLTISSLQPDDFATYYCQSTVRGGAYGNAFGGGTKVEIKR
notes: also called ANTIBODY-B H3C/L2(C90S)
With B10, the EC50 in assay [5] is 6.2 nM; in assay [6], 16.8 nM.

B11: TfRANTIBODY-B HC-H3C/LC-L2 (C90V) hIgG1Fab′(1C) (Fab, V domains shown)
VH: QSLVESGGGVVQPGRSLRLSCAASGFSFSNSYWICWVRQAPGKGLEWVGCINTDADSTNYASWARGRFTISKDNSKNTLYLQMNSLRAEDTAVYYCARQNNVFDPGYNLWGQGTLVTVSS
VL: ELVLTQSPSTLSASVGDRVTITCRASQNIGSNLAWYQQKPGKAPKLLIYDASKLESGVPSRFSGSGSGTEFTLTISSLQPDDFATYYCQVTVRGGAYGNAFGGGTKVEIKR
notes: also called ANTIBODY-B H3C/L2(C90V)
B11: the EC50 worked out at 3.2 nM in assay [5] and 7.7 nM in assay [6].

B12: TfRANTIBODY-B HC-H3C/LC-L2 (C90T) hIgG1Fab′(1C) (Fab, V domains shown)
VH: QSLVESGGGVVQPGRSLRLSCAASGFSFSNSYWICWVRQAPGKGLEWVGCINTDADSTNYASWARGRFTISKDNSKNTLYLQMNSLRAEDTAVYYCARQNNVFDPGYNLWGQGTLVTVSS
VL: ELVLTQSPSTLSASVGDRVTITCRASQNIGSNLAWYQQKPGKAPKLLIYDASKLESGVPSRFSGSGSGTEFTLTISSLQPDDFATYYCQTTVRGGAYGNAFGGGTKVEIKR
notes: also called ANTIBODY-B H3C/L2(C90T)
Regarding B12, the EC50 in assay [5] was 6.3 nM; in assay [6] it was 15.9 nM.
